Results from PMC9916836.

Molecular target: T1, UvrY-His6 (Escherichia coli O157:H7 (EHEC; EDL933?)) (UniProt P66798)
T1 sequence: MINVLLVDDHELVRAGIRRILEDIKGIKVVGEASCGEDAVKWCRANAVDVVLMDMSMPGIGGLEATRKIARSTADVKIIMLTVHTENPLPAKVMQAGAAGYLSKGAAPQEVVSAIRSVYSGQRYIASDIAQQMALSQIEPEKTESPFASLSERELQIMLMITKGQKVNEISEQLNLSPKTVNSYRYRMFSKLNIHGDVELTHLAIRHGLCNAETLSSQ
Test: EMSA

| Sequence | binding |
| --- | --- |
| AGATTCATCTGCAGGCTCTGAAGTAAGTATACGTGTGAATATTATTGCTTGAAAAAGCGTATTGGATAATATATACAGTATATGTACTTTATGTACATTGCAACTATTTAAATAATATAATAGTTGCCTATGGGATAATTTGGTTATTTATAACCAGGTAAATGTCTAAATTAGACAAAAGGAGAAAGATCAATGGAAGCAGCAAATTTAAGTCCTTCTGGTGCAGTAATG (double strand) [PLEE2/3] | no binding |
| CATTAGCCATTGGAAACTCACGTAATCATTAATTATGAATATTCCATTAAATAGTACTGTACAACAGCTTCCTTTCTACTCTATTCTTAGACGATGTAAGTTCACCATATTTTTTCTCATTGTTCAACCACCAGGATGAATAAAATTTAAAAATGTTATCCTCATATAAAATAAAACTTCTCAATGGTGCGATGCG (double strand) [PLEE4] | no binding |
| GGGTGCTACTTTACGCCTTTGCTTTAAACAAACAATCAACCGCCATCAGTATTTGCACATTTTCAGAGTTTTATATAAAAGCAATTAACTGATTTATATAGCTTATTTGACATGCATCGCAGAATTTTCTCTGCTATTTCGCATAAAGACTATCGGCAATGTCTCACAAAGCGTATGGCTTTTACTTACAACGCTCACGCCGAAAAATCCGCCTTTTATTATGGTTCAGGTATAATCGCCGCAAAGCTTTGACTGACGGAGACGACCGCTT (double strand) [PcsrC] | binds |
| GTTATCGCAGGGAGCCACACAGCGTGTGTTGGACGCGACTCAGCTTTACCTTGGTGAGATTGGTTATTCACCACTGTTAACGGCCGAAGAAGAAGTTTATTTTGCGCGTCGCGCACTGCGTGGAGATGTCGCCTCTCGCCGCCGGATGATCGAGAGTAACTTGCGTCTGGTGGTAAAA (double strand) [rpoS coding region] | no binding |
